These results are taken from paper PMC9234707.

pKd: −log10 of the molar value.

For orientation: pKd means the negative decadic logarithm of the Kd, by convention in mol/L. Read a high pKd as a low Kd. A word on the koff: it is the rate constant with which the complex falls apart. Read a high koff as a short-lived complex. In general, kon refers to the second-order rate constant of association.

In assay [1] the target is activin B (human (by the printed accession)) (UniProt P09529).
The target of assay [2] is BMP10 (human (by the printed accession)) (UniProt O95393).
The target in assay [3] is BMPR2 GBD-Fc (WT) (human) (UniProt Q13873). Put plainly: SPR; BIAcore 3000; receptor-Fc (about 500 RU BMPR2-Fc WT or variants, 150 RU ACVR2A-Fc) captured on immobilised anti-human IgG (Fc), CM5 chip; single injections of 80 nM GF, single curve fits, averages of two independent injections; 25 °C; HBS/EPS (0.01 M Hepes, 0.5 M NaCl, 3 mM EDTA, 0.005% Tween 20, pH 7.4) with 0.1% bovine serum albumin; 50 μl/min; 1:1 binding model, KD = kd/ka. On the technique in general: SPR reads the build-up and loss of mass on a sensor chip optically.

Assay [4] addresses BMP10 (human (by the printed accession)) (UniProt O95393). The source holds these as a separate data set.
Assay [5] has as its target ACVR2A GBD-Fc (human) (UniProt P27037). In words: SPR; BIAcore 3000; receptor-Fc captured on immobilised anti-human IgG (Fc), CM5 chip; titration, global fit of 2.5, 5.0, 10.0, 20.0 and 40.0 nM GF injections; 25 °C; HBS/EPS (0.01 M Hepes, 0.5 M NaCl, 3 mM EDTA, 0.005% Tween 20, pH 7.4) with 0.1% bovine serum albumin; 50 μl/min; 1:1 binding model, KD = kd/ka.
The target is the same in assay [6]. In words: SPR; BIAcore 3000; receptor-Fc (about 500 RU BMPR2-Fc WT or variants, 150 RU ACVR2A-Fc) captured on immobilised anti-human IgG (Fc), CM5 chip; single injections of 80 nM GF, single curve fits, averages of two independent injections; 25 °C; HBS/EPS (0.01 M Hepes, 0.5 M NaCl, 3 mM EDTA, 0.005% Tween 20, pH 7.4) with 0.1% bovine serum albumin; 50 μl/min; 1:1 binding model, KD = kd/ka.

Chain of BMPR2 GBD-Fc (WT) (human) (Q13873 whole entry): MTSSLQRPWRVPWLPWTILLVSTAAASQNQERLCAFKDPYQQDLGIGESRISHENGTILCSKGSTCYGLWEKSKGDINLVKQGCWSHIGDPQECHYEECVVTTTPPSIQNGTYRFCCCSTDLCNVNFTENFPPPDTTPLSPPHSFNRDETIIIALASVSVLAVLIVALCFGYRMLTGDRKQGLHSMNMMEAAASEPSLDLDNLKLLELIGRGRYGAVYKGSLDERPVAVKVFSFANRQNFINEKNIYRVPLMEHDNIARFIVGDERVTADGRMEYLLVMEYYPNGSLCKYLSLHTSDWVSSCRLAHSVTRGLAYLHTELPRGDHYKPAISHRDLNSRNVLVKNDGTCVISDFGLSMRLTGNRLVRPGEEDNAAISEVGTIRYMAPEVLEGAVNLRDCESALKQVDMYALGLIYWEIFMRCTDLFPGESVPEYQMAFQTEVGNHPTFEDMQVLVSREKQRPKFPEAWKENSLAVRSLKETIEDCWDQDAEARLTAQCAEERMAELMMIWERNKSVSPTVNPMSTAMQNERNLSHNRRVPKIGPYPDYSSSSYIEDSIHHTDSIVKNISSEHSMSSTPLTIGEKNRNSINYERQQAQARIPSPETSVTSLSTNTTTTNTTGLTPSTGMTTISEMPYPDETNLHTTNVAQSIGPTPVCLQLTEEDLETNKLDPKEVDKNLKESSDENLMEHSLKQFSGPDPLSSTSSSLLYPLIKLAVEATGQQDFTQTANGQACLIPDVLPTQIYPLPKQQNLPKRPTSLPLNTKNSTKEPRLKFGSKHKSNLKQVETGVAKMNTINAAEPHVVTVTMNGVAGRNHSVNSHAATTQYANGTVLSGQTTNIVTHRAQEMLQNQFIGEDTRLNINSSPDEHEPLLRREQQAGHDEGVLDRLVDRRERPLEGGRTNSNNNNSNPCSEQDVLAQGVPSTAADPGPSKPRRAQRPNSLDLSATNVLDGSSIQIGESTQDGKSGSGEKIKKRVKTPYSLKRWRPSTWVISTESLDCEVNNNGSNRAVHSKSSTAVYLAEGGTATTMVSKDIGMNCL
Chain of BMP7 (P18075 293-431): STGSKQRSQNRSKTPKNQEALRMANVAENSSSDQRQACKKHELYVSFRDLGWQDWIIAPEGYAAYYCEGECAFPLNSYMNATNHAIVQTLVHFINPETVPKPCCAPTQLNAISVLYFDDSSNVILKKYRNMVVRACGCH
Chain of BMP10 (human (by the printed accession)) (O95393 317-424): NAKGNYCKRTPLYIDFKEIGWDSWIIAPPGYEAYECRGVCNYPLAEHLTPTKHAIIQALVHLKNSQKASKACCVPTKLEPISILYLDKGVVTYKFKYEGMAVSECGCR
Chain of ACVR2A GBD-Fc (human) (P27037 whole entry): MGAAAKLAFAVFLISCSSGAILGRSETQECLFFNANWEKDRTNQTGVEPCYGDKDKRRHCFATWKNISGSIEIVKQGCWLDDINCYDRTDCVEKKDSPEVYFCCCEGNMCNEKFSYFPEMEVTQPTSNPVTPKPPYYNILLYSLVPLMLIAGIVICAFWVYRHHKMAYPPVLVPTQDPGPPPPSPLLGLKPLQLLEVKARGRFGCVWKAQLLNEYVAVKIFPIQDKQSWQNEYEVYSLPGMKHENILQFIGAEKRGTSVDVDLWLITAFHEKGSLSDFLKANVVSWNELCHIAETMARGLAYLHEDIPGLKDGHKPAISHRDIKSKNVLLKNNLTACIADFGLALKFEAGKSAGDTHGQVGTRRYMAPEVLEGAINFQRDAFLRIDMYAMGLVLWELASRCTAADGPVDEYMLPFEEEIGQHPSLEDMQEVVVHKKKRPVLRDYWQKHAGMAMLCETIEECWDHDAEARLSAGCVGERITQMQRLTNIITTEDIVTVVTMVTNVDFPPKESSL
Chain of activin B (human (by the printed accession)) (P09529 293-407): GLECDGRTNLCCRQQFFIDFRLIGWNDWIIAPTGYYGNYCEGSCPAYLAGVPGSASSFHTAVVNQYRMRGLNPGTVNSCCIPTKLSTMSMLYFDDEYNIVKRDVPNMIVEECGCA

The substance “ACVR2A GBD-Fc (from UniProt P27037 20-120) (Fc fusion)” returned an IC50 of inhibition of signalling by 5 nM activin B in stably transfected HEK293 SBE (SMAD2/3) luciferase reporter cells, 0-400 nM receptor-Fc in assay [1] of 14 nM. Moreover, the IC50 of inhibition of signalling by 5 nM BMP10 in stably transfected HEK293 BRE (SMAD1/5/8) luciferase reporter cells, 0-400 nM receptor-Fc in assay [2] was determined as 187 nM.

In assay [3], “BMP7 (from UniProt P18075 293-431) (ligand)” showed a pKd of 7.89, a koff of 0.0071 s⁻¹ and a kon of 520000 M⁻¹ s⁻¹.

On to “BMPR2 GBD-Fc (WT) (from UniProt Q13873 27-138) (Fc fusion)”, for which the IC50 of inhibition of signalling by 5 nM BMP10 in stably transfected HEK293 BRE (SMAD1/5/8) luciferase reporter cells, 0-400 nM receptor-Fc in assay [2] was found to be 35 nM.

Regarding “BMPR2-Fc variant G47D (from UniProt Q13873 27-138) (Fc fusion)”, the IC50 of inhibition of signalling by 5 nM BMP10 in stably transfected HEK293 reporter cells in assay [4] was 10 nM.

On to “BMPR2-Fc variant Q42R (from UniProt Q13873 27-138) (Fc fusion)”, for which the IC50 of inhibition of signalling by 5 nM BMP10 in stably transfected HEK293 reporter cells in assay [4] turned out to be 54 nM.

“BMPR2-Fc variant Q92H (from UniProt Q13873 27-138) (Fc fusion)” registered an IC50 of inhibition of signalling by 5 nM BMP10 in stably transfected HEK293 reporter cells in assay [4] of 10 nM.

“BMPR2-Fc variant S107P (from UniProt Q13873 27-138) (Fc fusion)” registered an IC50 of inhibition of signalling by 5 nM BMP10 in stably transfected HEK293 reporter cells in assay [4] of 7 nM.

For the substance “activin A (from UniProt P08476 311-426) (ligand)”, the results for the pKd (in the assay with ACVR2A GBD-Fc (human) [5]; with ACVR2A GBD-Fc (human) [6]; in assay [3]) were 10.74, 10.05 and 8.02, respectively. For the same substance, the koff in the assay with ACVR2A GBD-Fc (human) [5] was found to be 1.2e-05 s⁻¹; with ACVR2A GBD-Fc (human) [6], 0.00019 s⁻¹; in assay [3], 0.0036 s⁻¹. Moreover, the kon stood at 600000 M⁻¹ s⁻¹ with ACVR2A GBD-Fc (human) [5], 2.1e+06 M⁻¹ s⁻¹ with ACVR2A GBD-Fc (human) [6] and 370000 M⁻¹ s⁻¹ in assay [3].
